Laboratory results from patent US20220017635A1 (Kyowa Kirin, published 2022).
Numbering of substitutions follows the chain as printed. Names may count otherwise. Blank lines part the entries; values can stand above or below the binder they belong to.

Key:
monkey EGFR-FLAG-Fc = target: T1, monkey EGFR-FLAG-Fc (monkey, UniProt P55245 25-638); test: phage ELISA (scFv) on immobilized monkey EGFR-Fc
T1 construct: also called monkey EGFR-Fc; not shown: FLAG-Fc added to the C terminus

human EGFR-FLAG-Fc = target: T2, human EGFR-FLAG-Fc (human, UniProt P00533 25-638); test: phage ELISA (scFv) on immobilized human EGFR-Fc
T2 construct: also called human EGFR-Fc
Method: Specifically, it was carried out by adding a phage solution diluted with PBS-T containing 10% Block Ace (manufactured by Dainippon Pharmaceutical Co., Ltd.) to a 96-well immunoplate (NUNC, Inc.) on which an antigen protein was immobilized to allow a reaction to proceed at room temperature for 1 hour, followed by washing with PBS-T, and then, adding an anti-M13 antibody (manufactured by GE Healthcare, Inc.) labeled with horseradish peroxidase diluted with 1% BSA-PBS thereto to allow a reaction to proceed at room temperature for 1 hour.
The confirmation of a clone that specifically recognizes human and monkey EGFR-Fc was carried out by the ELISA method.

human EGFR on cells [1] = target: T3, human EGFR on cells (human, UniProt P00533 25-1210); test: flow cytometry on OE21 cells; x axis Alexa Fluor 488-A [B]
T3 construct: also called membrane-associated EGFR on OE21 cells

human EGFR on cells [2] = target: T3, human EGFR on cells; test: flow cytometry on OE21 cells; x axis Alexa Fluor 488-A [A]
chimeric TfR A07 = target: T4, chimeric TfR A07 (human/mouse chimera, UniProt P02786 89-760); test: ELISA on immobilized chimeric TfR
T4 construct: also called M365L-V366E-E369Q
Method: (§1) ELISA was carried out by the following method. To a 96-well immunoplate (NUNC, Inc.) on which an antigen protein was immobilized, 1% (w/v) BSA-PBS(−) pH 7.0 without KCl (hereinafter referred to as blocking solution, Nacalai Tesque, Inc.) was added to perform blocking at room temperature, and thereafter, the anti-TfR antibody diluted with the same solution was added thereto and a reaction was allowed to proceed at room temperature for 1 hour. Thereafter, washing was performed with 0.05% (w/v)-tPBS (1×) without KCl (pH 7.2) (hereinafter referred to as washing solution, Nacalai Tesque, Inc.), Anti-Human IgG (Fc) Goat IgG Fab″-HRP (IBL, Inc.) diluted with the blocking solution was added thereto, and a reaction was allowed to proceed at room temperature for 1 hour. Thereafter, washing was performed with the washing solution, and 1-Step (registered trademark) Ultra TMB-ELISA Substrate Solution (Thermo, Inc.) was added thereto, and a reaction was allowed to proceed at room temperature. The coloring reaction was stopped by adding a 5 N HCl solution, and an absorbance at a wavelength of 450 nm (reference wavelength: 570 nm) was measured using a plate reader (EPOCH 2: BioTek Instruments, Inc.).
(§2) Further, a value obtained by subtracting the absorbance at the reference wavelength of 570 nm from the absorbance at a wavelength of 450 nm was regarded as the binding activity to any of various types of antigen proteins, and a case where a value obtained by dividing the binding activity to any of various types of chimeric TfR by the binding activity to His-huTfR was 0.5 or more was denoted by ++, a case where the value was 0.2 or more and less than 0.5 was denoted by +, and a case where the value was less than 0.2 was denoted by −.

[3] = target: T5, huTfR with mouse apical domain (human/mouse chimera, UniProt P02786 89-760); test: ELISA on immobilized chimeric TfR
T5 construct: His tag added; also called chimeric protein of human TfR extracellular domain with mouse apical domain
T5 chain: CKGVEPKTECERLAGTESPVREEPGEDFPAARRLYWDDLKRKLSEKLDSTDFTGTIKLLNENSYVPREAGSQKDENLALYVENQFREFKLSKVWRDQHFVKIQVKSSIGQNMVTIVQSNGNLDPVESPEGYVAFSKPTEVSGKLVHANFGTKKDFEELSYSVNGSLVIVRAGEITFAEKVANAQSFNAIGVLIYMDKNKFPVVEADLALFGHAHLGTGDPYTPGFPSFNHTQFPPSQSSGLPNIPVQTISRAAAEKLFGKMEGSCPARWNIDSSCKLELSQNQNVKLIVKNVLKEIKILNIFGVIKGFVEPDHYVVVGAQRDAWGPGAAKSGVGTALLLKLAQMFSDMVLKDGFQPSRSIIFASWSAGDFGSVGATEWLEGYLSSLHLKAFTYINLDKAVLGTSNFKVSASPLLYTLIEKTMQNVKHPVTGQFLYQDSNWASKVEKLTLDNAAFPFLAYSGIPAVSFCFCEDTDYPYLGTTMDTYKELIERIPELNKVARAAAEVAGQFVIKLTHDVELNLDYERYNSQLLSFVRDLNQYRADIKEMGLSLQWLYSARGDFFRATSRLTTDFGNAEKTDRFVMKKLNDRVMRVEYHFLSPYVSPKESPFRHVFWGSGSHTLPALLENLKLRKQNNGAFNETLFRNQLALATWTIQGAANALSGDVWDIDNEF
Method: as §1, §2

chimeric TfR A02 = target: T6, chimeric TfR A02 (human/mouse chimera, UniProt P02786 89-760); test: ELISA on immobilized chimeric TfR
T6 construct: also called D352S-S355A-D356R-K358N
T6 chain: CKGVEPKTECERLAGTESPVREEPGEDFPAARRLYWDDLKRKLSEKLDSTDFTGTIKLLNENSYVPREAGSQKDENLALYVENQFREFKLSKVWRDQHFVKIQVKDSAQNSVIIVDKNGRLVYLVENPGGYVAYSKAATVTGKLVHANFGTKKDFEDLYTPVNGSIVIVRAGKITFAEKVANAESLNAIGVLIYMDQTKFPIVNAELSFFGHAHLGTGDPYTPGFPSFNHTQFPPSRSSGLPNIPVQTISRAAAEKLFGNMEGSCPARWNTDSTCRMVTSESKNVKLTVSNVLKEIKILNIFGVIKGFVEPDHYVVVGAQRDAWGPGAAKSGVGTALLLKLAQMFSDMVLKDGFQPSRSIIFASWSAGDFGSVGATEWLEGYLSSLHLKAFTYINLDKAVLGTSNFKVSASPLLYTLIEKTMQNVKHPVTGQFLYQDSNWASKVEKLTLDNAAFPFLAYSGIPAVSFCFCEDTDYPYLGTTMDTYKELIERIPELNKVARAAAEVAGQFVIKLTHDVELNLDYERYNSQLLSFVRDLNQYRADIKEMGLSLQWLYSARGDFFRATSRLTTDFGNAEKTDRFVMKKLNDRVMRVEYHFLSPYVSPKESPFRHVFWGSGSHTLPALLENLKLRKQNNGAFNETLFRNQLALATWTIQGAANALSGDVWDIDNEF
Method: as §1, §2

mouse TfR on CHO cells = target: T7, mouse TfR on CHO cells (mouse, UniProt Q62351 1-763); test: flow cytometry on mouse TfR/CHO cells
T7 construct: also called mouse TfR/CHO
Method: Subsequently, an epitope analysis for various types of TfR antibodies was carried out.

monkey TfR on CHO cells = target: T8, monkey TfR on CHO cells (monkey); test: flow cytometry of monoclonal phage (scFv) on monkey TfR/CHO cells
T8 construct: also called monkey TfR/CHO cells
T8 chain: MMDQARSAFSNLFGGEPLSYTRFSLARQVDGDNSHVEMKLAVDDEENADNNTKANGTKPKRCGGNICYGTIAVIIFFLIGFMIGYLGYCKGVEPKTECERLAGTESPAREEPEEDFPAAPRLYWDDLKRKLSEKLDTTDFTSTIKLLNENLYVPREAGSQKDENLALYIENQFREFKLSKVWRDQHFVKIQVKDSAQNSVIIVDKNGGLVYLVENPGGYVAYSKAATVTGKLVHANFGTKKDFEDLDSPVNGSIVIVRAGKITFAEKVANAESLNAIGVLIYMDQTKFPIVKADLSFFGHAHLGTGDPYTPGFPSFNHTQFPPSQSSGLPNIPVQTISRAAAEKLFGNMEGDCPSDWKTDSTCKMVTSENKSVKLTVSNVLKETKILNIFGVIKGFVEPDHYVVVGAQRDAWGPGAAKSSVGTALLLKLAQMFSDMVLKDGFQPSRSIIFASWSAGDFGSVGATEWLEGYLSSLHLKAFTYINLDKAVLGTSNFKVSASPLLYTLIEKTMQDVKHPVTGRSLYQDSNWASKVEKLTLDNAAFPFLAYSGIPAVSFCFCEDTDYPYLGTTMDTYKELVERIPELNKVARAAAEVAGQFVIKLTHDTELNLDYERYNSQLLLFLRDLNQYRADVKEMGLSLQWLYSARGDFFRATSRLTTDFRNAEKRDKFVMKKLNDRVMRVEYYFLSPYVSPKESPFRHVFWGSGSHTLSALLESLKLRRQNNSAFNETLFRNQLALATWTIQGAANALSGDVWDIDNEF
Method: (§3) After the reaction was allowed to proceed under 4° C. for 30 minutes, each well was washed 3 times with PBS-T.

[4] = target: T9, huTfR with mouse protease-like domain (human/mouse chimera); test: ELISA on immobilized chimeric TfR; grade = binding relative to His-huTfR (++ 0.5 or more, + 0.2 to less than 0.5)
T9 construct: His tag added; also called chimeric protein of human TfR extracellular domain with mouse protease-like domain
T9 chain: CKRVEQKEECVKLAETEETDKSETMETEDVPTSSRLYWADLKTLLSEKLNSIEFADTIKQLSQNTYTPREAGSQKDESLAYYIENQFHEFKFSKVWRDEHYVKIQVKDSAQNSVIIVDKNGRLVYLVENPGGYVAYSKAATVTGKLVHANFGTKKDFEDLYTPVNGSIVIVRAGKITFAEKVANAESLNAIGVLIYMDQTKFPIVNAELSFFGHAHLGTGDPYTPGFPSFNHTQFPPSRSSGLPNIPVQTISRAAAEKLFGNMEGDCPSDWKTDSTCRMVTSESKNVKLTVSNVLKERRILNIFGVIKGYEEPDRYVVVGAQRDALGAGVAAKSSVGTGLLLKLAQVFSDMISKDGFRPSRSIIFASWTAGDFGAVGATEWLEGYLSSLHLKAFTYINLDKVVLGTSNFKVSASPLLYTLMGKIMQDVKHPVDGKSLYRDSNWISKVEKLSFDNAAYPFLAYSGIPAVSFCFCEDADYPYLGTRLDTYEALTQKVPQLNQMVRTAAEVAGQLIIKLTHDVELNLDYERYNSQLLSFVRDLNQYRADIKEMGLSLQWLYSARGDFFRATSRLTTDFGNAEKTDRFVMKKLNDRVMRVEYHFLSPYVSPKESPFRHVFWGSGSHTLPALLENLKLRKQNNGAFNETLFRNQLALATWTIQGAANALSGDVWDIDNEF
Method: as §1, §2

chimeric TfR A14 = target: T10, chimeric TfR A14 (human/mouse chimera, UniProt P02786 89-760); test: as above
T10 construct: also called D204Q-K205S-E369Q
Method: as §1, §2

chimeric TfR A05 = target: T11, chimeric TfR A05 (human/mouse chimera, UniProt P02786 89-760); test: as above
T11 construct: also called P249S-L274F
Method: as §1, §2

chimeric TfR A03 = target: T12, chimeric TfR A03 (human/mouse chimera, UniProt P02786 89-760); test: as above
T12 construct: also called D245E-K261E
Method: as §1, §2

chimeric TfR A04 = target: T13, chimeric TfR A04 (human/mouse chimera, UniProt P02786 89-760); test: as above
T13 construct: also called D245E-K261E-D356R
Method: as §1, §2

human TfR on cells = target: T14, human TfR on cells (human, UniProt P02786 1-760); test: flow cytometry of monoclonal phage (scFv) on human TfR/CHO cells
T14 construct: also called human TfR/CHO; human TfFR/CHO cells
Method: as §3

human EGFR on cells [5] = target: T3, human EGFR on cells; test: flow cytometry on OE21 cells; x axis PE-A [E]

B3: cyno292 (antibody, V domains shown)
VH: QVQLVQSGGGLVKPGGSLRISCTTSGFPFDGYTMTWVRQAPGKGLEWVSSISNGGSTIFVSDSVRGRFTISRDNAKNSLYLQMNNVGAEDTAVYYCARARDAYGWTLPSDIWGQGTMVTVSS
VL: not shown
notes: also called anti-TfR antibody cyno292
ratio of ELISA binding activity (A450-A570) to chimeric TfR over that to His-huTfR (chimeric TfR A07): < 0.2 ratio
ratio of ELISA binding activity (A450-A570) to chimeric TfR over that to His-huTfR [3]: < 0.2 ratio
ratio of ELISA binding activity (A450-A570) to chimeric TfR over that to His-huTfR (chimeric TfR A02): < 0.2 ratio
binding result (mouse TfR on CHO cells): no binding
binding result (monkey TfR on CHO cells): binds
ratio of ELISA binding activity (A450-A570) to chimeric TfR over that to His-huTfR [4]: ≥ 0.5 ratio
ratio of ELISA binding activity (A450-A570) to chimeric TfR over that to His-huTfR (chimeric TfR A14): ≥ 0.5 ratio
ratio of ELISA binding activity (A450-A570) to chimeric TfR over that to His-huTfR (chimeric TfR A05): ≥ 0.5 ratio
ratio of ELISA binding activity (A450-A570) to chimeric TfR over that to His-huTfR (chimeric TfR A03): ≥ 0.5 ratio
ratio of ELISA binding activity (A450-A570) to chimeric TfR over that to His-huTfR (chimeric TfR A04): ≥ 0.5 ratio

B5: PSM4072 (antibody, V domains shown)
VH: EVQLVETGGGLVQPGGSLRLSCTASGFTFESHAMYWVRQAPGKGLEWVSGISNGGSSTEYADSVRGRFTISRDNSKNTVYLQMNSLRAEDTAVYYCARPRSPYLFYDAAGVWGQGTLVTVSS
VL: not shown
notes: as IgG it has the constant region of human IgG4PE or IgG4PE R409K; also called anti-TfR antibody PSM4072
binding result (monkey TfR on CHO cells): binds
binding result (human TfR on cells): binds

B7: KME09 (antibody, V domains shown)
VH: QVQLVQSGAEVKKPGSSVKVSCKASGGTFSSFAWGWVRQAPGQGLEWMGEIRPGFGTEIYAQNFQDRVTFITDEATSTTYMELSSLKSEDTAVYYCARGLLRSGYIDNPCDIWGQGTMVTVSS
VL: DIQMTQSPSSLSASVGDRVTITCRASQGISSWLAWYQQKPEKAPKSLIYAASSLQSGVPSRFSGSGSGTDFTLTISSLQPEDFATYFCQQYYNYPYTFGQGTKLEIK
notes: IgG4PE or IgG4PE R409K; also called anti-EGFR antibody KME09
binding result (human EGFR on cells [5]): binds

B8: R327 (antibody, V domains shown)
VH: EVQLVETGGGLVQPGGSLRLSCAASGFSFDKYTMNWVRQAPGKGLEWVSVISNGGVSTDYADSVKGRFTVSRDNSKNTLYLQMNSLRAEDMATYYCARASQPWLYRTGADVWGQGTMVTVSS
VL: not shown
notes: also called anti-TfR antibody R327
binding result (mouse TfR on CHO cells): no binding
ratio of ELISA binding activity (A450-A570) to chimeric TfR over that to His-huTfR [4]: ≥ 0.5 ratio

B9: TfR1071 (antibody, V domains shown)
VH: B8 VH with E1Y, T7S, M117L
VL: not shown
notes: also called anti-TfR antibody TfR1071
binding result (mouse TfR on CHO cells): no binding
ratio of ELISA binding activity (A450-A570) to chimeric TfR over that to His-huTfR [4]: ≥ 0.5 ratio

More lines, now with the values ahead:

binding result (monkey EGFR-FLAG-Fc): binds
binding result (human EGFR-FLAG-Fc): binds
binding result (human EGFR on cells [1]): binds
B1: E12 (antibody, V domains shown)
VH: QVQLVESGGGLVQPGGSLRLSCAASRFTFSAYAMGWVRQAPGKGLEWVSIIDSGGVYTYYADSMKGRFTISRDNSKNTLYLQMNSLRAEDTAVYYCARDHYGVVWGLGDYWGQGTLVTVSS
VL: not shown
notes: also called anti-EGFR antibody E12; Clone E12

binding result (monkey EGFR-FLAG-Fc): binds
binding result (human EGFR-FLAG-Fc): binds
binding result (human EGFR on cells [2]): binds
B2: E08 (antibody, V domains shown)
VH: EVQLVESGGGLVQPGGSLRLSCAASGFSFNNNAMNWVRQAPGKGLEWVSGIRADGGTTYYADSVKGRFTISRDNSKNTLYLQMNSLRAEDTAVYFCGKTPDWEIFYYAMDAWGQGTTVTVSS
VL: not shown
notes: also called anti-EGFR antibody E08; Clone E08

ratio of ELISA binding activity (A450-A570) to chimeric TfR over that to His-huTfR [4]: ≥ 0.5 ratio
B4: TfR1007 (antibody, V domains shown)
VH: EVQLVESGGGLVQPGGSLSLSCAASGFSFKGYSMSWVRQAPGKGLEWVSSLSNGGGSSYYADSVKGRFTISRDNSKNTLYLQMNSLRAEDTAVYYCAKTLGAYYIKSAMDVWGQGTTVTVSS
VL: not shown
notes: also called anti-TfR antibody TfR1007

binding result (monkey TfR on CHO cells): binds
binding result (human TfR on cells): binds
B6: cyno163 (antibody, V domains shown)
VH: B5 VH with T7S, T23A, E30S, S31T, H32Y, Y35S, L117M
VL: not shown
notes: as IgG it has the constant region of human IgG4PE or IgG4PE R409K; also called anti-TfR antibody cyno163
